target: GABAA receptor β2 subunit, FLAG-tagged (β2^FLAG) (human) (UniProt P47870); test: co-IP

Substance	amount associated with β2^FLAG relative to wildtype γ2L^HA
GABAA receptor γ2L(N79S) subunit, HA-tagged (γ2L(N79S)^HA)	0.94
GABAA receptor γ2L(P83S) subunit, HA-tagged (γ2L(P83S)^HA)	0.71
GABAA receptor γ2L(R82Q) subunit, HA-tagged (γ2L(R82Q)^HA)	0.47

Source: PMC4169075
